From patent publication US7262289

Target: KCNQ2+KCNQ3 channel (human KCNQ2 co-expressed with human KCNQ3) (human) (UniProt O43526)
Assay: cell-based or functional assay

KCNQ2+KCNQ3 channel (human KCNQ2 co-expressed with human KCNQ3) (human), sequence (O43526 other isoform, or with tags, fused parts or gaps, chain 1 of 2): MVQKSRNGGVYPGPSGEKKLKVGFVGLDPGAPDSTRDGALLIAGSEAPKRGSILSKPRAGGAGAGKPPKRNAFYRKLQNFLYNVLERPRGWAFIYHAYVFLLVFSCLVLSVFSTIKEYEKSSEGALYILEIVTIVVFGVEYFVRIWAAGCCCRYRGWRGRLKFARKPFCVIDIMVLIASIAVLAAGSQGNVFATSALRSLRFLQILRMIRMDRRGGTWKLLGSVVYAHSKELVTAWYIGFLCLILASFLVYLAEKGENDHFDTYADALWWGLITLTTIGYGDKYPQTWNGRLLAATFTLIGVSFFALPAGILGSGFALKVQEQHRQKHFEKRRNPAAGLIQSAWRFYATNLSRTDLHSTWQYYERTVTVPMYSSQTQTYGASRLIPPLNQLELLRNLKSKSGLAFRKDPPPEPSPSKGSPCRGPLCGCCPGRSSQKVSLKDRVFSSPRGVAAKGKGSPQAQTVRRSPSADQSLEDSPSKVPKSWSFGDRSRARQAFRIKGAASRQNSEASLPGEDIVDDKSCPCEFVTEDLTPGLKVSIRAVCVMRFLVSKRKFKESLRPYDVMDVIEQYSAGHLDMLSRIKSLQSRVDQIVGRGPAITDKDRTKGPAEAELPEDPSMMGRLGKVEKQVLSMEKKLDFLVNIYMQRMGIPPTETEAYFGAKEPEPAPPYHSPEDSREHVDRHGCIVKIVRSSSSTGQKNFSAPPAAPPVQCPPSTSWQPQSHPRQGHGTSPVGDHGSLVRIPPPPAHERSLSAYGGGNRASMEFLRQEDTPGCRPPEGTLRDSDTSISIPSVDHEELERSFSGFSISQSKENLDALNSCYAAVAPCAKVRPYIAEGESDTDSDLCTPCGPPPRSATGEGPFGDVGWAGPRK
KCNQ2+KCNQ3 channel (human KCNQ2 co-expressed with human KCNQ3) (human), sequence (O43526 other isoform, or with tags, fused parts or gaps, chain 2 of 2): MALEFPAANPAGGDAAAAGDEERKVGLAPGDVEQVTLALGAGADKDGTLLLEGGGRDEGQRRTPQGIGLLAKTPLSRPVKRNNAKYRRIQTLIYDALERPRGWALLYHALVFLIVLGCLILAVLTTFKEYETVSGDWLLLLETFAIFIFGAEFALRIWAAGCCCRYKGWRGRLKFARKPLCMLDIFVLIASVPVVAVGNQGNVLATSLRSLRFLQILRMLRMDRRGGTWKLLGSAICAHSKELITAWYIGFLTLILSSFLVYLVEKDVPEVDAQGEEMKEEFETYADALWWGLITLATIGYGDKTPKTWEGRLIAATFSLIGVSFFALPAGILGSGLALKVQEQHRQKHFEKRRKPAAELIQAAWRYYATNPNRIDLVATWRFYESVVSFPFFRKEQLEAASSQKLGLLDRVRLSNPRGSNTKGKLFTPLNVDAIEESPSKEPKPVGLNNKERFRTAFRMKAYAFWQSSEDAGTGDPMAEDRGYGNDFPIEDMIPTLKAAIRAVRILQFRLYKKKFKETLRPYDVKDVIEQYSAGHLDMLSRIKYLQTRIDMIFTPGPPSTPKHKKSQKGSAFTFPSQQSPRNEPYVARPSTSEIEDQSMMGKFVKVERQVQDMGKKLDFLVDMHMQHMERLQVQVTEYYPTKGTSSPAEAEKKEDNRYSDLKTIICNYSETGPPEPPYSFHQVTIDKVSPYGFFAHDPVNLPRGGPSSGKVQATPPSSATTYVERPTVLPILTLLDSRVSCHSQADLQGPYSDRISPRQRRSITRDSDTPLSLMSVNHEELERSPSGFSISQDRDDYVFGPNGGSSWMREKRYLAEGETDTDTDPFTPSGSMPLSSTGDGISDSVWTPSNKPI

- reduction of peak current amplitude at +30 mV in oocytes co-expressing KCNE1: 62%
Substance: KCNE1
